As usually defined, the Kd is the constant that tells how readily two partners part at equilibrium. Read a high Kd as a looser complex.

Assay [1] concerns the target T1, Atg17–Atg29–Atg31 complex, wild type (S. cerevisiae (budding yeast), UniProt Q06410 1-417; Q12092 1-213; Q12421 1-196).
T1 sequence (looked up) 1: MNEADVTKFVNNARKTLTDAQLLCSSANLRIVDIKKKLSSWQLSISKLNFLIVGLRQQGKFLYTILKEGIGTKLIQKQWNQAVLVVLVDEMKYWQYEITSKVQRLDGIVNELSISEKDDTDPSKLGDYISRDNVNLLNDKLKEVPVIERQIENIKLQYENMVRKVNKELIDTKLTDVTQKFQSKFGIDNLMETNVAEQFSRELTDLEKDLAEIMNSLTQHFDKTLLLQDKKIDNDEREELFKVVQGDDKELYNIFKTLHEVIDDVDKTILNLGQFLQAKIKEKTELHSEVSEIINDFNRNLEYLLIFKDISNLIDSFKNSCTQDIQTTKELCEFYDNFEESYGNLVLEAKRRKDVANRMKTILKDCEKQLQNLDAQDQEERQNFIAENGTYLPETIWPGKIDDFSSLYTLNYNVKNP
T1 sequence (looked up) 2: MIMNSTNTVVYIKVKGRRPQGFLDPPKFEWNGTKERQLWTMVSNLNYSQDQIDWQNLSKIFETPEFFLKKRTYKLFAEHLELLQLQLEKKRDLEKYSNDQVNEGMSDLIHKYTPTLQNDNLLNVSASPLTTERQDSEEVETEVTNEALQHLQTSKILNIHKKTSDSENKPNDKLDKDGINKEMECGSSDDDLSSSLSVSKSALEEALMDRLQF
T1 sequence (looked up) 3: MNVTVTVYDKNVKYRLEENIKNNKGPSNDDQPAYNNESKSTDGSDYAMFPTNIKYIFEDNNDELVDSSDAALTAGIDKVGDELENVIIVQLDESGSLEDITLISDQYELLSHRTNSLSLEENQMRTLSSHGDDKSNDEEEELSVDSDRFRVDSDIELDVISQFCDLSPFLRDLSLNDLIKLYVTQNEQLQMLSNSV
Nature of the assay: pull-down.

Assay [2] deals with Atg17–Atg31C (residues 174–196) complex (S. cerevisiae (budding yeast), UniProt Q06410 1-417; Q12421 174-196). Put plainly: ITC. Background: Isothermal titration calorimetry measures the heat released or taken up as one component is titrated into another.

B1: GST–Atg12^17BH F50A (domain or fragment, S. cerevisiae (budding yeast), UniProt P38316 42-62, looked up)
chain: TVQNRLELASRRLSQLGLASD
With B1, the binding result in assay [1] is recorded as “binds”.

B2: Atg12^17BH–mGFP, wild type (Atg12 residues 42–62 with C-terminal mGFP) (domain or fragment, S. cerevisiae (budding yeast), UniProt P38316 42-62, looked up)
chain: TVQNRLELFSRRLSQLGLASD
The molecule B2 yielded a Kd in assay [2] of 3.8 µM.

These data come from publication doi:10.1101/2024.08.29.610189 (bioRxiv, 2024).
